The values that follow come from the supplement of paper PMC11316812.

± gives the standard deviation of the averaged measurements.

One data set deals with MCF7. Kind of data set: percentage of EdU-negative (G0-arrested) nuclei per well, 72 h; higher = more G0 arrest. Conditions: reference: sequence is the full UniProt precursor, the tested protein was the secreted form or ectodomain.
A further data set relates to hTERT-HMEC. The data set is described as above. The conditions noted are these: reference: sequence is the full UniProt precursor, the tested protein was the secreted form or ectodomain.
Setting [1] is: protein concentration 0.0175 µM.
Setting [2] is: protein concentration 0.0126825 µM.
Setting [3] is: protein concentration 0.126825 µM.
The mark [4] stands for this setting: protein concentration 0.01625 µM.
[5] abbreviates: protein concentration 0.1625 µM.
Where [6] appears, read: protein concentration 0.0225 µM.
Where [7] appears, read: protein concentration 0.0155 µM.
Setting [8] is: protein concentration 0.0173575 µM.
[9] abbreviates: protein concentration 0.173575 µM.
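Also: secreted proteins added to cultured cells, EdU pulse at the end, nuclei found by Hoechst imaging, EdU status from nuclear versus surrounding ring intensity ratio, PBS as neutral control.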

“MQSVQSTSFCLRKQCLCLTFLLLHLLGQVAATQRCPPQCPGRCPATPPTCAPGVRAVLDGCSCCLVCARQRGESCSDLEPCDESSGLYCDRSADPSNQTGICTAVEGDNCVFDGVIYRSGEKFQPSCKFQCTCRDGQIGCVPRCQLDVLLPEPNCPAPRKVEVPGECCEKWICGPDEEDSLGGLTLAAYRPEATLGVEVSDSSVNCIEQTTEWTACSKSCGMGFSTRVTNRNRQCEMLKQTRLCMVRPCEQEPEQPTDKKGKKCLRTKKSLKAIHLQFKNCTSLHTYKPRFCGVCSDGRCCTPHNTKTIQAEFQCSPGQIVKKPVMVIGTCTCHTNCPKNNEAFLQELELKTTRGKM”: the “percentage of EdU-negative” value is 26.6 ± 2.9% in the data set on MCF7 (setting [1]), 26.7 ± 4.2% with MCF7 (protein concentration 0.175 µM), 4.53 ± 0.15% in the data set with hTERT-HMEC (setting [1]) and 15.1 ± 2.2% in the data set on hTERT-HMEC (protein concentration 0.175 µM).

As for “MQVSKRMLAGGVRSMPSPLLACWQPILLLVLGSVLSGSATGCPPRCECSAQDRAVLCHRKRFVAVPEGIPTETRLLDLGKNRIKTLNQDEFASFPHLEELELNENIVSAVEPGAFNNLFNLRTLGLRSNRLKLIPLGVFTGLSNLTKLDISENKIVILLDYMFQDLYNLKSLEVGDNDLVYISHRAFSGLNSLEQLTLEKCNLTSIPTEALSHLHGLIVLRLRHLNINAIRDYSFKRLYRLKVLEISHWPYLDTMTPNCLYGLNLTSLSITHCNLTAVPYLAVRHLVYLRFLNLSYNPISTIEGSMLHELLRLQEIQLVGGQLAVVEPYAFRGLNYLRVLNVSGNQLTTLEESVFHSVGNLETLILDSNPLACDCRLLWVFRRRWRLNFNRQQPTCATPEFVQGKEFKDFPDVLLPNYFTCRRARIRDRKAQQVFVDEGHTVQFVCRADGDPPPAILWLSPRKHLVSAKSNGRLTVFPDGTLEVRYAQVQDNGTYLCIAANAGGNDSMPAHLHVRSYSPDWPHQPNKTFAFISNQPGEGEANSTRATVPFPFDIKTLIIATTMGFISFLGVVLFCLVLLFLWSRGKGNTKHNIEIEYVPRKSDAGISSADAPRKFNMKMI [Q96FE5]”, the “percentage of EdU-negative” value in the data set with MCF7 (setting [2]) was 23.8 ± 3%; in the data set with MCF7 (setting [3]), 28.9 ± 0.74%; in the data set with hTERT-HMEC (setting [2]), 4.72 ± 0.26%; with hTERT-HMEC (setting [3]) it was 4.37 ± 0.16%.

For the sequence “MQVSTAALAVLLCTMALCNQFSASLAADTPTACCFSYTSRQIPQNFIADYFETSSQCSKPGVIFLTKRSRQVCADPSEEWVQKYVSDLELSA”, the “percentage of EdU-negative” value in the data set with MCF7 (setting [4]) came to 25.6 ± 0.31%; in the data set with MCF7 (setting [5]), 25.3 ± 0.67%; with hTERT-HMEC (setting [4]), 4.43 ± 0.47%; in the data set with hTERT-HMEC (setting [5]), 5.62 ± 0.9%.

As to “MQWLRVRESPGEATGHRVTMGTAALGPVWAALLLFLLMCEIPMVELTFDRAVASGCQRCCDSEDPLDPAHVSSASSSGRPHALPEIRPYINITILKGDKGDPGPMGLPGYMGREGPQGEPGPQGSKGDKGEMGSPGAPCQKRFFAFSVGRKTALHSGEDFQTLLFERVFVNLDGCFDMATGQFAAPLRGIYFFSLNVHSWNYKETYVHIMHNQKEAVILYAQPSERSIMQSQSVMLDLAYGDRVWVRLFKRQRENAIYSNDFDTYITFSGHLIKAEDD [Q9BXI9]”, the “percentage of EdU-negative” value turned out to be 26.9 ± 1.5% with MCF7 (setting [6]), 29.5 ± 1.2% in the data set with MCF7 (protein concentration 0.225 µM), 4.57 ± 0.33% in the data set on hTERT-HMEC (setting [6]) and 4.82 ± 1.2% in the data set with hTERT-HMEC (protein concentration 0.225 µM).

Take “MQWTSLLLLAGLFSLSQAQYEDDPHWWFHYLRSQQSTYYDPYDPYPYETYEPYPYGVDEGPAYTYGSPSPPDPRDCPQECDCPPNFPTAMYCDNRNLKYLPFVPSRMKYVYFQNNQITSIQEGVFDNATGLLWIALHGNQITSDKVGRKVFSKLRHLERLYLDHNNLTRMPGPLPRSLRELHLDHNQISRVPNNALEGLENLTALYLQHNEIQEVGSSMRGLRSLILLDLSYNHLRKVPDGLPSALEQLYMEHNNVYTVPDSYFRGAPKLLYVRLSHNSLTNNGLASNTFNSSSLLELDLSYNQLQKIPPVNTNLENLYLQGNRINEFSISSFCTVVDVVNFSKLQVLRLDGNEIKRSAMPADAPLCLRLASLIEI”: the “percentage of EdU-negative” value in the data set with MCF7 (setting [7]) was found to be 25.8 ± 0.27%; in the data set on MCF7 (protein concentration 0.155 µM), 30.9 ± 1.2%; in the data set on hTERT-HMEC (setting [7]) it was 4.701 ± 0.032%; in the data set with hTERT-HMEC (protein concentration 0.155 µM) it was 5.63 ± 0.63%.

Regarding “MRAAGTLLAFCCLVLSTTGGPSPDTCSQDLNSRVKPGFPKTIKTNDPGVLQAARYSVEKFNNCTNDMFLFKESRITRALVQIVKGLKYMLEVEIGRTTCKKNQHLRLDDCDFQTNHTLKQTLSCYSEVWVVPWLQHFEVPVLRCH”, the “percentage of EdU-negative” value with MCF7 (setting [6]) turned out to be 27.2 ± 0.74%; with MCF7 (protein concentration 0.225 µM) it was 27.2 ± 1.1%; in the data set on hTERT-HMEC (setting [6]), 4.61 ± 0.72%; in the data set on hTERT-HMEC (protein concentration 0.225 µM), 4.863 ± 0.024%.

Turning to “MRAAPLLLARAASLSLGFLFLLFFWLDRSVLAKELKFVTLVFRHGDRSPIDTFPTDPIKESSWPQGFGQLTQLGMEQHYELGEYIRKRYRKFLNESYKHEQVYIRSTDVDRTLMSAMTNLAALFPPEGVSIWNPILLWQPIPVHTVPLSEDQLLYLPFRNCPRFQELESETLKSEEFQKRLHPYKDFIATLGKLSGLHGQDLFGIWSKVYDPLYCESVHNFTLPSWATEDTMTKLRELSELSLLSLYGIHKQKEKSRLQGGVLVNEILNHMKRATQIPSYKKLIMYSAHDTTVSGLQMALDVYNGLLPPYASCHLTELYFEKGEYFVEMYYRNETQHEPYPLMLPGCSPSCPLERFAELVGPVIPQDWSTECMTTNSHQGTEDSTD”, the “percentage of EdU-negative” value was found to be 26.5 ± 0.46% with MCF7 (setting [8]), 27.8 ± 1.6% in the data set on MCF7 (setting [9]), 5.15 ± 0.62% with hTERT-HMEC (setting [8]) and 5.55 ± 0.26% in the data set on hTERT-HMEC (setting [9]).
